Molecular target: EGFP, C-terminally biotinylated (Aequorea victoria GFP, engineered EGFP …, biotin on the C-terminal biotin acceptor peptide)
Experiment: BLI

- Kd: 0.75 nM
- koff: 7.1e-05 s⁻¹
- kon: 94000 M⁻¹ s⁻¹
B1: GBP* (engineered GFP-Binding Protein, unconjugated) (VHH)
VHH: QVQLVESGGALVQPGGSLRLSCAASGFPVNRYSMRWYRQAPGREREWVAGMSSAGDRSSYEDSVRGRFTISRDDARNTVYLQMNSLRPEDTAVYYCNVNVGFEYWGQGTQVTVSS

Source: article doi:10.1101/2025.10.08.681152 (bioRxiv, 2025)
